In paper PMC8443744:

Target: senataxin (SETX), endogenous (human (endogenous in MRC-5)) (UniProt Q7Z333)
Test: proximity ligation; Duolink PLA in methanol-fixed MRC-5 cells with antibodies against the two endogenous proteins; cells mock treated (DMSO), 25 uM CPT for 10 min, or 50 uM alpha-amanitin overnight followed by CPT

Chain of UniProt Q7Z333 (Q7Z333 whole entry): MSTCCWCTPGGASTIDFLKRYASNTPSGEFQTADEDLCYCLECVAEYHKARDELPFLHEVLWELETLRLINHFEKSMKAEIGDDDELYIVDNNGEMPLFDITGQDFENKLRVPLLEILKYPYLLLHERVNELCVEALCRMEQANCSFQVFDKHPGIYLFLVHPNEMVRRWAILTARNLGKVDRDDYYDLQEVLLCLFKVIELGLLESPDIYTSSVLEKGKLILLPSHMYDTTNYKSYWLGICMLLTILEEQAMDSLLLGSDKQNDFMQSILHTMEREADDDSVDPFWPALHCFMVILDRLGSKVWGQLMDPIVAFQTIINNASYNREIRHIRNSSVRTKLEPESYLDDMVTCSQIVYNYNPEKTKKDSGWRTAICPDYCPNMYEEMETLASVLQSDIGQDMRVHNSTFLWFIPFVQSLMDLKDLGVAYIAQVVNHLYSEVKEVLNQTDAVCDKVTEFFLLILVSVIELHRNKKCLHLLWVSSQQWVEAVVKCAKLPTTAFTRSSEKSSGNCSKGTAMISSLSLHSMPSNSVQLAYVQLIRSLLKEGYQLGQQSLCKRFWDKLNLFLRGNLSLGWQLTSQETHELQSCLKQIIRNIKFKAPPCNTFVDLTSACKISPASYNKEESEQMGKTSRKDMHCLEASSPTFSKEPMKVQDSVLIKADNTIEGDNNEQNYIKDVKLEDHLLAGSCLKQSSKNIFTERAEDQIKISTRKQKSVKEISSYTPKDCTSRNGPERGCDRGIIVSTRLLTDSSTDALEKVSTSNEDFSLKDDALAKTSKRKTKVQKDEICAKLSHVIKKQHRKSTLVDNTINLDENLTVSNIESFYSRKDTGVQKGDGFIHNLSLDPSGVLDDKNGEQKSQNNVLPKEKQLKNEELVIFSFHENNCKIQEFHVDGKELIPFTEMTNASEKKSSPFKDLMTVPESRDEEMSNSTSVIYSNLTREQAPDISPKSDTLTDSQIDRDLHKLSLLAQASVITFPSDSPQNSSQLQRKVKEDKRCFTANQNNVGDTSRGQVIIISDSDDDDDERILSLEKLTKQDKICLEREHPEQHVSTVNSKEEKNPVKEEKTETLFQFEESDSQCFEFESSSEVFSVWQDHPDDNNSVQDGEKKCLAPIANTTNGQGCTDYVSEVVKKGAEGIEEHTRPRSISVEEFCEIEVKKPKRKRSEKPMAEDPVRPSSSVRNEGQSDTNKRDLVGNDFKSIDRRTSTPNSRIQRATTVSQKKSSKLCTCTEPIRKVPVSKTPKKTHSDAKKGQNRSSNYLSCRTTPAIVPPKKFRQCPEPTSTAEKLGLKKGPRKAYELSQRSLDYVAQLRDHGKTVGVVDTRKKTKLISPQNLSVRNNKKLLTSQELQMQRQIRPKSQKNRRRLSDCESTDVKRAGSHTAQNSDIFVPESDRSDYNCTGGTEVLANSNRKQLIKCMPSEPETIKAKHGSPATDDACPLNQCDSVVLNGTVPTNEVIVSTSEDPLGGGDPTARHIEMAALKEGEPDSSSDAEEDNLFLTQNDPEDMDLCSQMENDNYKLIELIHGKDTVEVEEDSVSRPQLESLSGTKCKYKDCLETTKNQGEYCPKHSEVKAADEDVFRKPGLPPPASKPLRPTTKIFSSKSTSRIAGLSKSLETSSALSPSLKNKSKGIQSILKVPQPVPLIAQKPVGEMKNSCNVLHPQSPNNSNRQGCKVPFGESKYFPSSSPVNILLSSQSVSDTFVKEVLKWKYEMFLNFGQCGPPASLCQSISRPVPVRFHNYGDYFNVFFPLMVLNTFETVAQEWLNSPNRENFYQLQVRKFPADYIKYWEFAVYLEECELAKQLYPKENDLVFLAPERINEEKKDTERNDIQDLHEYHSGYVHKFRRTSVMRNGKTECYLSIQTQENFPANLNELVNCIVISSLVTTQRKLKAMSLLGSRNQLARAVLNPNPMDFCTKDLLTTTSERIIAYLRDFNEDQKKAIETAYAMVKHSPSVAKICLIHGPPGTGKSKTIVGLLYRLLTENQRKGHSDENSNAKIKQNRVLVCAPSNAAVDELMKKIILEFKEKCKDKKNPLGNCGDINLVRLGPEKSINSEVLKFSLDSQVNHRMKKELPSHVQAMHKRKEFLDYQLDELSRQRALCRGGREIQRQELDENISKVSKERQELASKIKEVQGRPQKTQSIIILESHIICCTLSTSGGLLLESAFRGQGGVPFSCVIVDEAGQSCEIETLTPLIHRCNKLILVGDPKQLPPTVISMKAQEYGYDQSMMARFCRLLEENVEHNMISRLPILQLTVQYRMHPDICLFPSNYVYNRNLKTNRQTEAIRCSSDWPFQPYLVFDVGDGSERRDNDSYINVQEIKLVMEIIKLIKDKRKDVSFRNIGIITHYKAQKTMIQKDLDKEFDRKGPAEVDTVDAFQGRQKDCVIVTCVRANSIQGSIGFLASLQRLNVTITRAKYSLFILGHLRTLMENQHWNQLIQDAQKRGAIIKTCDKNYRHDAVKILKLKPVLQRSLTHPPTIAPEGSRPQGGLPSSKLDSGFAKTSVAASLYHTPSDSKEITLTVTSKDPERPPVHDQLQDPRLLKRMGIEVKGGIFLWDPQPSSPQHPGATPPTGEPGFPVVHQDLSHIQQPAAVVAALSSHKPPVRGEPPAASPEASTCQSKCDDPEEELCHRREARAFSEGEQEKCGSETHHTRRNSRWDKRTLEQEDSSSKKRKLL

ubiquitin specific peptidase 11 (USP11), endogenous (from UniProt P51784 1-963)
fold increase in PLA signal after CPT (against unperturbed cells): 5 fold
